B1: DDR2-Fc (recombinant human discoidin domain receptor 2 ectodomain, Fc-tagged) (Fc fusion, UniProt Q16832 22-399, looked up)
chain: KAQVNPAICRYPLGMSGGQIPDEDITASSQWSESTAAKYGRLDSEEGDGAWCPEIPVEPDDLKEFLQIDLHTLHFITLVGTQGRHAGGHGIEFAPMYKINYSRDGTRWISWRNRHGKQVLDGNSNPYDIFLKDLEPPIVARFVRFIPVTDHSMNVCMRVELYGCVWLDGLVSYNAPAGQQFVLPGGSIIYLNDSVYDGAVGYSMTEGLGQLTDGVSGLDDFTQTHEYHVWPGYDYVGWRNESATNGYIEIMFEFDRIRNFTTMKVHCNNMFAKGVKIFKEVQCYFRSEASEWEPNAISFPLVLDDVNPSARFVTVPLHHRMASAIKCQYHFADTWMMFSEITFQSDAAMYNNSEALPTSPMAPTTYDPMLKVDDSNTR
notes: human discoidin domain receptor 2, ectodomain; In the functional rows the receptor was full-length DDR2 in HEK293 cells; also called DDR2 ectodomain; source: HEK293-EBNA, episomally transfected, purified (rProtein A)
B2: DDR1-Fc (recombinant human discoidin domain receptor 1 ectodomain, Fc-tagged) (Fc fusion, UniProt Q08345 21-417, looked up)
chain: DMKGHFDPAKCRYALGMQDRTIPDSDISASSSWSDSTAARHSRLESSDGDGAWCPAGSVFPKEEEYLQVDLQRLHLVALVGTQGRHAGGLGKEFSRSYRLRYSRDGRRWMGWKDRWGQEVISGNEDPEGVVLKDLGPPMVARLVRFYPRADRVMSVCLRVELYGCLWRDGLLSYTAPVGQTMYLSEAVYLNDSTYDGHTVGGLQYGGLGQLADGVVGLDDFRKSQELRVWPGYDYVGWSNHSFSSGYVEMEFEFDRLRAFQAMQVHCNNMHTLGARLPGGVECRFRRGPAMAWEGEPMRHNLGGNLGDPRARAVSVPLGGRVARFLQCRFLFAGPWLLFSEISFISDVVNNSSPALGGTFPPAPWWPPGPPPTNFSSLELEPRGQQPVAKAEGSPTA
notes: human discoidin domain receptor 1, ectodomain; IgG1 Fc, R&D Systems) stood in which experiment; In the functional rows the receptor was full-length DDR1a in HEK293 cells or endogenous DDR1 on human megakaryocytes; also called DDR1 ectodomain; source: HEK293-EBNA, episomally transfected, purified (rProtein A) (IgG2 Fc); for some experiments bought: R&D Systems (IgG1 Fc)

Key:
Assay in all cases: ELISA; solid-phase binding assay: native (triple-helical) collagens coated at 200 μg/ml in PBS on Immulon 2HB plates overnight at 4 °C; DDR-Fc at 20 μg/ml (∼220 nM) or in a series of 0-60 μg/ml (0-667 nM) in PBS, 3 h at room temperature; anti-Fc detection, A450; apparent Kd from a one-site fit
[1] = molecular target: SCl-DDR6 (bacterial collagen with six triplets of the human collagen III DDR-binding sequence) (Streptococcus pyogenes | human)
[2] = molecular target: SCl-DDR4 (bacterial collagen with four triplets of the human collagen III DDR-binding sequence) (Streptococcus pyogenes | human)
[3] = molecular target: T1, Collagen type III, pepsin-extracted from bovine skin (bovine, UniProt P04258 1-1049, 4-hydroxyproline in Yaa positions (positions not listed)); conditions: both partners purified
T1 construct: bovine collagen alpha1(III) chain, pepsin-extracted from skin; Homotrimer of alpha1(III) chains; native triple helix unless denatured (90 °C, 30 min); also called Bovine Collage III; collagen III; source: pepsin-extracted from bovine skin (provided by Dr. John Ramshaw)
T1 sequence (looked up): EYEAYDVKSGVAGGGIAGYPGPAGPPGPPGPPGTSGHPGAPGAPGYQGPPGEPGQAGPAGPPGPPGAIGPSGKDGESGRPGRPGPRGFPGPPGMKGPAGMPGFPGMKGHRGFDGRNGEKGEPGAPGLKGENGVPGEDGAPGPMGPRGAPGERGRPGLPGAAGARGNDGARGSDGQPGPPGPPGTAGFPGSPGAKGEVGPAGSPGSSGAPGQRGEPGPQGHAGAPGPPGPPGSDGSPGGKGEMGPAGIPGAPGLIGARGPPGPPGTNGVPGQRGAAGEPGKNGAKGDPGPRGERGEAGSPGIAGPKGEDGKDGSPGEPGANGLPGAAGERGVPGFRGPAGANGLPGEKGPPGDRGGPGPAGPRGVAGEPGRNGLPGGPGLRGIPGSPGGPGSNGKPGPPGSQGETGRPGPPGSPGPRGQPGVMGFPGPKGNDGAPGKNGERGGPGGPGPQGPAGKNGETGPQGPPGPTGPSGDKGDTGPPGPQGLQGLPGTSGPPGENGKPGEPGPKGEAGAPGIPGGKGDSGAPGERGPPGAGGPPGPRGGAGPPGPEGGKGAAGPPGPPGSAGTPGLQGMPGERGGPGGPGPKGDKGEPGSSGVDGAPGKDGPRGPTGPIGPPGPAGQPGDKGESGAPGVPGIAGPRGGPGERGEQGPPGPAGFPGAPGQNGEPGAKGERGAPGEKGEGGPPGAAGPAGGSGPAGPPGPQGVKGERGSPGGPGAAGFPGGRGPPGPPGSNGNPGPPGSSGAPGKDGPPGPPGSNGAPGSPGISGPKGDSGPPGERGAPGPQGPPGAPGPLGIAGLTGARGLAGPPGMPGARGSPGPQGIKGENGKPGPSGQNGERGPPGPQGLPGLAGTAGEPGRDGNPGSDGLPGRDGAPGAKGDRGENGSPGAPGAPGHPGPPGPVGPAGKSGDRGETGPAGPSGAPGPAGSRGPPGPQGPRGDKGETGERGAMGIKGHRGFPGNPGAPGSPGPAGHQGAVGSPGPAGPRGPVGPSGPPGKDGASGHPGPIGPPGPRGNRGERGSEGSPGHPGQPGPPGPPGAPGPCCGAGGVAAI

Molecule	Kd [1] [nM]	Kd [2] [nM]	Kd [3] [nM]
DDR1-Fc (recombinant human discoidin domain receptor 1 ectodomain, Fc-tagged) (from UniProt Q08345 21-417) (Fc fusion)	66	53.3	
B1	69.7	81.2	20 ± 1.9
B2			15.2 ± 0.9
